# In patent US20120192297A1 (TOKYO INSTITUTE OF TECHNOLOGY, published 2012):
# B1: FH-CRBN ΔMid (deletion of amino acids 187 to 260) (other, not shown: small tags and cut ends)
# chain: MAGEGDQQDAAHNMGNHLPLLPAESEEEDEMEVEDQDSKEAKKPNIINFDTSLPTSHTYLGADMEEFHGRTLHDDDSCQVIPVLPQVMMILIPGQTLPLQLFHPQEVSMVRNLIQKDRTFAVLAYSNVQEREAQFGTTAEIYAYREEQDFGIEIVKVKAIGRQRFKVLELRTQSDGIQQAKVQILPLREWDENLKDDSLPSNPIDFSYRVAACLPIDDVLRIQLLKIGSAIQRLRCELDIMNKCTSLCCKQCQETEITTKNEIFSLSLCGPMAAYVNPHGYVHETLTVYKACNLNLIGRPSTEHSWFPGYAWTVAQCKICASHIGWKFTATKKDMSPQKFWGLTRSALLPTIPDTEDEISPDKVILCL
# Biological target: Cullin 4A (Cul4A), endogenous in 293T cells (human, UniProt Q13619 1-759, limits assumed)
# Experiment: anti-FLAG immunoprecipitation from 293T cells, western blotting for DDB1 and Cul4A
# Cullin 4A (Cul4A), endogenous in 293T cells, sequence (Q13619 whole entry): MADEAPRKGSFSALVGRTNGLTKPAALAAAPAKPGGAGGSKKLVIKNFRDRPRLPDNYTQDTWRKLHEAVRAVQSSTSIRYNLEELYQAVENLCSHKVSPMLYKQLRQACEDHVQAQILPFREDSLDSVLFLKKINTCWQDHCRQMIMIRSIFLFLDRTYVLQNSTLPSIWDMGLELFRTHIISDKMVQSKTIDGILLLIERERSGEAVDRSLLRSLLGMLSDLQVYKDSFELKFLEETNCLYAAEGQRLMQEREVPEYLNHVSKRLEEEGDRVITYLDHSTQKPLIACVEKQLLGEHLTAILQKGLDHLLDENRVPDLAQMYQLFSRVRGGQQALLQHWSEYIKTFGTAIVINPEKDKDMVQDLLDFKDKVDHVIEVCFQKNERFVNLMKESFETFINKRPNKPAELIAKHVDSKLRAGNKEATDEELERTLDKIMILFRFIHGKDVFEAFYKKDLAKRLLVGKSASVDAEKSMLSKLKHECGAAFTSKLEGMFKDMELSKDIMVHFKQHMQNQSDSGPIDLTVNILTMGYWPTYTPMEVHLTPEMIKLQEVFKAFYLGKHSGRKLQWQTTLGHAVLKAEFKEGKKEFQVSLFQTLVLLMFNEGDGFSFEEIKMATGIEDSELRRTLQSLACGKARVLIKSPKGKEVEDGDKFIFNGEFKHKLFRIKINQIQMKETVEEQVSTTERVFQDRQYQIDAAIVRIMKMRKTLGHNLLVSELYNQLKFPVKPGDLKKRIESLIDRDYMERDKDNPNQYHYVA
binder,measurement,value
B1,binding result,no binding
